Test: soluble fraction after stress (log2 fold change); higher = more stays soluble; pooled small domains, quantitative proteomics
Conditions: stress: 75 degC
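Note: 20 min heating vs room temperature control held 20 min.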

Sequence	soluble fraction (log2)
HMTWDSFIGYTVTDVQKGYLGEITDVDETTINVLLRVDHKGEELLIPAVEELITEADHEARSLTVSLPEGL	-0.398
HMTYFIADLIGLQVYTDSGELLGKVDDIYNSGSADIYVVKDELGKQILLPGIKDVIKQIDVDNEKIIVHLI	-1.24
HMTYIQSNLKFLRNKMNISQEELAKRLFVTHQTVSNHENGKSQPNFEMIEKYASFFNVPFEDLIHKDLSL	-0.68
HMTYNIPEHYQTIDVKEYVRKLVSDGDSDQIGRVEMELTEFETRNLFPVLKVLIYIIDTMRK	-3
HMTYQTVRYGSTGSAVRQLQSALNQKGYQLSEDGIFGAKTRAAVRDYQKKNGLLLDGIAGSQTWNHLMS	-0.179
HMTYSSESVRYRIKSLIDNETIDEILSDDKIVNILKSQGIDVARRTVAKYREAMGLASSIQRRREKKSA	-0.707
HMVAGGTVSRKLSIETGLPKRKSLIGSWLDQNSVWHNIISVRHRNGYGDGVNYGFYLRSLLTSEGNLAW	-0.0583
HMVAGHLQTKKGYYYIVLNMRTDTGARKTKWIATGIPEGGKKNLKQAEELLAKTRYTYEDMVI	-2.52
HMVAPKTEEQQKMFLESIVTKRQAETLIEKYPNIVQDIIDGTDNVDLANLKGIGEHTYNLIKEKVLSNY	0.546
HMVAPPILNITTHIFAEEADLRMVMINGVTRREGDSLGENHRLLEITERGLILIFHNKQYTLDV	-4.32
HMVAQEVPYSTFVMRLDRNEVDAVKIIDGNEIEGTFKSPNGDLVQFKTLIPYQDTELMPLLKQKGVRISGS	0.427
HMVARPVLQIGSTGADVTAIQARLGVSQTGYFGVLTAAAVTNFQRSNGIAASGKVGATTWAKLMQSA	-2.37
HMVAVSQEEATKMALERVSGASAQDIRIQLEFDDGIQKYEGDIIYNGREYEFEIDANTGTFLEWSEERA	-0.176
HMVDETDVPTFTDMTLEEAQNEAKQRNLKLEITESPSDKEKDTILEQDPEPGKTVASGSTVKLTVSNGEE	-0.157
HMVDFHAAYSILRIAPGASWQEIQAAYEKLNDAWREDRYPQVPFWNEKAAFKRREVEQAYEKLRKFHALRH	-2.43
HMVDFVNVVVPVKANYGGEAVVEFLDERLSEFGTEGIYRIELQGETMENPSPDYSQLKAKYHISEIVDRT	0.0718
HMVDKDFKPLYASLERLDSTSIIEILDSNRIDYRIDQRSGALLVDADQIHQARLSLASAGMPA	-0.263
HMVDLANIDPIASSIKLNGAEADASFNTLEDRRVSVSGSFEENKNYTMEYTFKDYAGGSVTGTLDFKTLA	0.36
HMVDLAPTEEIIKNLPNNSRSLLIPTLQKIQNAYRYLPSPAMELLSEFLNVTRAEIYGVISFYPSLL	0.173
HMVDLLDETLIEFYAFANNLIKDLETNSEKYGGMSQFEKELIFNEQITQYQRKLKIDLQDEVG	-1.8
HMVDPRLRSLTPQERRILEHIAEGLTNRQIAEDMFLAEKTVKNYVTSILDKLGMDSRTQAAVYAATHPT	-0.483
HMVDSTDLIPLLIKVSREKQGNKKLNWGEWLKIPENIYLKQINENIARKVFEDTNDLIDEAVNYINRKRRN	-0.963
HMVDTEVFSRLLRKVLAGDVTSAIRILEELIVGGRELSQFVGDFTWYMRNLLLVKTSDNPEEA	-0.463
HMVDYYEILGVSPDASRKDIENAWRKKMREAHPDMGGSEDKAQLLNEAHKVLSDESARAEYDASR	0.181
HMVELPDLIGKSKRLAFTQLEISGLKIGKIIYEPDLAKDAVLKILYNGKIVKAGEQLPRFATVDLVLG	-2.11
HMVEMIGLQMVGKSGIASTVLRPSGKVRIDGVVYDAVSEDGFIEKGQAVKVLRYETGQVYVEKL	-0.727

Sequence	soluble fraction (log2)
HMVEPIEESISQLSLLLQSLYEDGKSEVSFEELIRSDRSRVSLFLALLFMAQRGNVYLEQEELFGDLRVKN	0.0329
HMVEREYRLEVPPEAEGKRLDQFLVNQPVQLSRSQVQHLIQNGLVLVNAKTRRSSYRVHTGDIIEMQVPA	0.121
HMVERQVTVPNLTGLGVADAQRLAQSMELDIEVLGEQESTDARPGAVLQQTPGAGTRAAAGSVVSVLV	0.201
HMVEVPEQLRDLLERSIEDLAELSVRSRNSLQKENIQTLGDLVQRTEEEMLGIENFGKKSLTEIAAFL	-0.217
HMVEYFDDENLDAFIGRESDSYTEKEIEQFREILYTMNQKEVADWNRSLTIRGINIPNDLKDEMIMMI	-0.225
HMVEYIENINLSEKQKFIAHEILKEIRGRAIFLRDVGLDYLNLSRKAGTLSGGEAQRIRLATQIGSA	0.198
HMVFKSAQEGLDFYSKQLNDVDATLGRIRRGEESGNGLYGSNRVKNLEEQRKKLDSFVTAYRNAVNAT	0.0212
HMVFTEEEMLEKIKEYLSTNSYINRRAMETLFNLRQSTALKWLGHFTEIGVLRKEGERNYPVYFLNN	-0.972
HMVGADTISDLISQRGRMIGDKPITNAVIKSGSEFSTINALSKAIASGDARTNDVEGMKPVFR	-0.126
HMVGKGASIILDRVNLPQYLEKFNEDGFDTIESLKNLNEIDLKEMGVKKGHIRVILNYLHEEY	-0.421
HMVGLKWYDTGNKKPPIGTEYKNTELSEALKGHDRKEFTWKELDVLGVNITDKEQYIVVGENYYTQV	0.0506
HMVGPAHIGLAVAKDQLPHWERHLTANGVEIEGRMRWDHGGESIYFRDPDAHLLELVTPGIWAN	0.0383
HMVGVDMTVKEEVGKEGVTFTDLRPAGKVEIGNDIYDAVSNTGAFIQKGEKVKIIKYQAGQVYVEKLV	0.00838
HMVIANADVRAKFSKGKDSFVKYYFKEKVLKDGFTEEVKNNIVQALFYLQIVTRIDGESGVLIIDY	0.123
HMVIDETVLIDLFERLAEDDRPQRVAFRYILALVLLRKRTLQLIGREDEDDGEIWLLRFKGTDGEPIRV	-0.463
HMVIGKHSGSHTLVNDLAKRGITLDKEESATLLEMVRKAAVGLHRSISSDELYGLYKDMKSGQDPFEDS	0.139
HMVINVKEILERIKLVKGFHTQIEIARFLGVSKGTISNWLARNSVDFPLVISKLDGVDLNWLFTGIGMPQ	-3.77
HMVISNDEFEDYLNRATEQLVSELSSGKNPRDAVHDLALTFADQHNKSYDAYQRMADSLEARMHTL	0.0871
HMVITEQTVTVKYLYEDDTEAAPEHSETHKTGETFEIESPKIDGFTPDYELITGTIANDDLVYIVRYKTTP	-0.487
HMVITQVSTTQTDTTFQYHKVKPKETLFSISRLYEVSIDEIKTINPALNSRELMAGELLKLPIK	-1.4
HMVKGIVPNLIGKTQDEAKQMAEEYGFSIGTVSEKASDKPKGTVIEQSPKAGAKASGVTSINIVVSDGS	-0.121
HMVKKYEKVKEYLLERILDGTYVPDLPIPPERELASLLDVNRMTVRRAVEELMYDGYLIRKKGSGTYLTR	-1.6
HMVKLSVGDIVQFAGGPHYVSSSAAKPASSPTAGPAKVTMIYQGAKHPYHIVHTTSASTVWGWVDADKVVK	0.0767
HMVKNLRKLREELGLTQQRLAELTGISKSRIYSYESLDREPDIAGLITLADFFSVSIDYLVGK	-2.66
HMVKPKIILADIGMITETDVTLAKASQAVLIAFNVKPSKEAKKLAEDENIKISTYNIIYEVLDFVKKSMSG	0.304
HMVLALRGIVQGGAEPLVILSDGRTSQSLAVGERFLAYEVVEIGRTGVRLRGPEGEIWLAMASF	-1.2

Sequence	soluble fraction (log2)
HMVLANLQAAEQGDLGIKEGEKLTILQTRPDGWWTARNANGETGLVPK	0.186
HMVLFDLSEREKEVLKLLADGNSYKMIASRLEITYFTVNAHLKKIYEKLQVHSASEAVSVALRNSL	-1.19
HMVLIQNEDVKDISNYPLLSSVPVFDVFNNKMIIPTFNKDSFNPLIYNFNFNSKRRLIYRVDNTNYLIVIK	0.0494
HMVLMPIDALRGSSSSSEMRIAAVKFSPSKGWYFSLQERSDEGSSYYEQKVASDGSVSERVKVR	-0.58
HMVLNVMIEEEVHREIIAAISKLPKERRRVVELSMAGFSQEEIAEKMAISVNTVKTIKLRAYRVLRERLKG	-3.78
HMVLPELRLQGLPTAVLRLINRATALADDYRRLMEIAEDGRIDEWEAPEFERISENIQRVIAAGFEVL	0.0637
HMVLQHHTATKALSYHTSASASAAVKGSFARGDSVQVVQGGSQTADGAKWHKVKVGSSYYYAAAEHLTP	≥ 1.04
HMVLTYYSVLGVKTDATTEEIKSTYKQLAIRNHPDRGGSEEVMKMINLAAEILSDPKSRKEYDLSLDA	-2.06
HMVLVLPGEMIHVQVIDEGKEMGQGVGYLDDGTMVVVENGLRHIGRAIDVQVTKVLQTNAGRMIFGQPIL	-1.71
HMVMAELRISVDRLQIGNYIKLPLSWRDHPFLLSSFMIKKEEQIQLIRQLRLKHVFIIPEKSDAPPKPA	-4.2
HMVMNYKKIGKKIADRRILLGITQEELAEKVDSSANYISNIETGIKSGSLIFYIKVANELKLSLDFLFSDE	-3.09
HMVMPTGRVRYYDAEKGFGFLSKDSGGDDVYVRSSALPAGVTSLKRGQKVEFGIIDGKRGEQALSVHLL	-0.202
HMVMTTVPEVLGMDIRTAASMLTGKNLKYDYDLVESDKPKDEVIEQDQAKGTEVPEGTVVKLKVSKGPA	0.143
HMVMTTVPEVLGMDISKAASLLTGKNLDYDYDLVESDKPKDQVIEQDVVKGTEVPEGTVIHLKVSKGPA	0.258
HMVMVVDVLKALSNNSSDKFFNTSISNAIKAQEDSQEDFVTLFGIEYEKLSPNNGLAVIFTSQ	0.865
HMVNDDTIAATEAEILALLADKHRHHITELNSIRRPYEQIDAALSSLINEEKIFQEDGMLFV	0.543
HMVNGEFIDRIKVILQENNATRKKDRLTKTRMYQLLQEEGYEGSYSAFTYQVRIIEEELGINNK	-2.31
HMVNSIQIHKKLRLDKRAGSDNWYARLTLPNGKRLVKTTKTEDIETAKEVALRLYYEVDARIQNKLPAT	-1.72
HMVPADVQHLRDIVDTMTEKQQLVYKLHVLEGYTFTEIAKLMGTSIPNVKKHYDKAILFIKNNF	-1.79
HMVPEEEATKISVQNVGASDYNFTVKGVQANDPTLTLVRGKTYEFDVTSLGHPFWIKTQKVTGSSSQY	0.354
HMVPLSPRFFDIFRKRKDLTRQNVDVYFRDHPTEITAFERYIKGLVSQSYIPAERADALLLVASQYKAK	-1.58
HMVPSTAVIFTELVSMRSEPATKSPVTHQLTKGTAITINEEKDGWYQVTDQTGNSGWIVKWAVKPTYFTNP	-0.967
HMVPTYEAYVGKEGLVVGTLRPAGTAEFDGERLDVVSEGEYLEAGTRVQIVRTEGRRIVVRKIN	-0.275
HMVPVVGTTIPHEFIGKFGSARVMLKPAVEGSGVIAGGSARAVLELAGYKDIKTKVLGTNNPRNVVYATMN	0.238
HMVQDDDPNSVAKFIDQVIESNPEQVEQYRSGKEKVFNFFLGQTMRLSKGKANPDLVSELLKEKLS	0.0209

Reference: the domain aggregation screens of Martell et al. (2025)
